The nature of this data set: soluble on expression in E. coli; label from the status in PepcDB or PDB records.
As to “MTYFIDVPTMSDLVHDIGVAPFIGELAAALRDDFKRWQAFDKSARVASHSEVGVIELMPVADKSRYAFKYVNGHPANTARNLHTVMAFGVLADVDSGYPVLLSELTIATALRTAATSLMAAQALARPNARKMALIGNGAQSEFQALAFHKHLGIEEIVAYDTDPLATAKLIANLKEYSGLTIRRASSVAEAVKGVDIITTVTADKAYATIITPDMLEPGMHLNAVGGDCPGKTELHADVLRNARVFVEYEPQTRIEGEIQQLPADFPVVDLWRVLRGETEGRQSDSQVTVFDSVGFALEDYTVLRYVLQQAEKRGMGTKIDLVPWVEDDPKDLFSHTRGRAGKRRIRRVA”, the “soluble on expression in E. coli” value is recorded as “soluble”.
For “SNAMRSAQVYRWQIPMDAGVVLRDRRLKTRDGLYVCLRDGEREGWGEISPLPGFSQETWEEAQTALLTWVNDWLQGSEGLPEMPSVAFGASCALAELTGVLPEAADYRAAPLCTGDPDDLVLRLADMPGEKIAKVKVGLYEAVRDGMVVNLLLEAIPDLHLRLDANRAWTPLKAQQFAKYVNPDYRARIAFLEEPCKTRDDSRAFARETGIAIAWDESLREADFTFEAEEGVRAVVIKPTLTGSLDKVREQVAAAHALGLTAVISSSIESSLGLTQLARIAAWLTPGTLPGLDTLHLMQAQQIRPWPGSALPCLKREELERLL”, the “soluble on expression in E. coli” value is on record as “soluble”.
With “GDLLVVTLENITEAKQGEISLNAALHAAEKQERLYNSITNNTPDLVYVFGLDYSFTYANKALLTMWGKTAEEAIGKGLRENGYEEWHAQMHEREIDEIKATKKSIRGTVSFPHAELGSRMYDYILVPVLNESGEVEAIAGTTRD” the entry was “not soluble”; with “GPGSMMRTQQVDPDLTPVLAALASRINRDLPTVVELLCRRLVVQWNRAYLRKDWRFVENASRYLGWLFLLNVVEVDIIYQLLLKHLTSEKRREEDIDQAAKLFRETFKVMSLKERRSFHEQILTPFRDLLAMDDEELRLSTRSQAVLESCLKEVQEWERRKEREEAIPDYLVLFDLEMQQRHEMDLDEKYPTEDALDRYAFDAEYDTHEEQYEAVRKAILGEDWEVELLQQV”, “not soluble”; with “MTKNKMEAKIDELINNDPVWSSQNESLISKPYNHILLKPGKNFRLNLIVQINRVMNLPKDQLAIVSQIVELLHNSSLLIDDIEDNAPLRRGQTTSHLIFGVPSTINTANYMYFRAMQLVSQLTTKEPLYHNLITIFNEELINLHRGQGLDIYWRDFLPEIIPTQEMYLNMVMNKTGGLFRLTLRLMEALSPSSHHGHSLVPFINLLGIIYQIRDDYLNLKDFQMSSEKGFAEDITEGKLSFPIVHALNFTKTKGQTEQHNEILRILLLRTSDKDIKLKLIQILEFDTNSLAYTKNFINQLVNMIKNDNENKYLPDLASHSDTATNLHDELLYIIDHLSEL”, “soluble”.
As to “TNTDQSIKFTSKSNSINKNNQNKELALLRDNLMNEAKVDEPLSFEKRFENFKNKYSDIHSLNNSVFSLHDVYDLLGGFKQSLTTFFDEVIAQQQKIKDADKIFPSTKDNPPKEENPNVLDTLANYQGAGFFPSLGKNGFNLPEAVFQNFTDFRINDYKIKNFNVDLVSENDIIKHDKVRYAFEV”, the “soluble on expression in E. coli” value is “not soluble”.
As for “MYALAFDLKIEILKKEYGEPYNKAYDDLRQELELLGFEWTQGSVYVNYSKENTLAQVYKAINKLSQIEWFKKSVRDIRAFKVEDFSDFTEIVKS”, the “soluble on expression in E. coli” value is “not soluble”.
The result for “MSLKTIVVKFGTSTLTQGSPKLNSPHMMEIVRQIAQLHNDGFRIVIVTSGAIAAGRHYLNHPQLPPTIASKQLLAAVGQSQLIQAWEKLFAIYDIHIGQLLLTRADIEDRERFLNARDTLYALLDNHIIPVINENDAVATAEIKVGDNDNLSALVAILVQAEQLYLLTDQQGLFDSDPRKNPEAKLIPVVEQITDHIRSIAGGSGTNLGTGGMMTKIIAADVATRSGIETIIAPGNRPNVIADLAYEQNIGTKFIAHQSDRLESRKQWLFAAPSAGIITIDNGAQNAILEQNKSLLPAGIINVEGRFSRGEVVKIRTQSGKDIALGMPRYNSDALQLIKGRKSADIENVLGYEYGAVAMHRDDMIILSEGHHHHHH” reads “soluble”.
On to “MTECIFCHQLKANQLLTQSQYFKVVFDIDPIQKGHLLLISKDHYTSLTQLPKEGHYDLIDLQAALVAKLEQHLPISGVTSVSNDKELMDEGTHFHLHLIPRLTNDSFWEGITINQENWDLTPFLKHL”, for which the “soluble on expression in E. coli” value is listed as “not soluble”.
“SRTLQFTKMATDHSGAGNLMDCWNAGLELKSCTDEIVKFFLSQTGTSEPPVKGGIDKDCCGAIGLVVKDCWSVMFTSLGLTTMEGNNLREYCEFQAEKSELSPSPAPETLALSPVEITYPGLDY”: the “soluble on expression in E. coli” value was “soluble”.
In the case of “SLKYEDINENTIKITLSFDDLTDYDIKLSDFFGNQEVIEQFFYELVDELGLENRFGNVGMLTFQIQPFPQGVHMIVHEEAMLGEGGEIPDDPEEFEELMTGFYNKLNEIGADMARERGITDFKPGLGLPGTKKDEAEQEPDFIYYSIRYEDIMSVLTGIKNVKFADEESEFYRYDGNFYLVVLDNQKEKGKMHVESTRSRMMEYGEATKMSREFLQEYGECLIATRALDVLRKI”, the “soluble on expression in E. coli” value is recorded as “soluble”.
Turning to “MGSDKIHHHHHHVKTRFFCQSCGQESPRWLGKCPGCGEWNTLVEEVVERAAAKRTPLGVKATPLTEIQIREEERVSSGSQELNRVLGGGIVPGSFVLLGGEPGIGKSTLLLQTAGLLAKGMDVLYISGEESEKQIKLRAERLGIKESRLHILTETRLEVVRDVALAMGPGLLIVDSIQTMVLEELQAAAGSVSQVREGAAFLMRLAKEEEIPIFLVGHVTKEGAIAGPRVLEHIVDTVLYFEGDRHHVYRLLRAVKNRFGSTNEIGVFEMHEDGLVEVPNPSKVFLGENSATAPGSSVAVIVEGSRPLLVEIQALVTPTTYGPPRRTATGIDYNRILMLLAVLDKKVGLHLGAQDVFINIAGGIRIDEPGVDLACIAAIASSLGERPLKRYALVGEVGLTGEVRGISQIEKRVKEAVKLGFEGCIIPRINVSAVKVPGNFTVIAVKTVEEAVQVMFEQ”, the “soluble on expression in E. coli” value is recorded as “not soluble”.
The result for “MGSDKIHHHHHHERNKTLYWGGALWSPPSNWNPFTPWNAVAGTIGLVYEPLFLYDPLNDKFEPWLAEKGEWVSNNEYVLTLRKGLRWQDGVPLTADDVVFTFEIAKKYTGISYSPVWNWLGRIERVDERTLKFVFSDPRYQEWKQMLINTPIVPKHIWENKTEEEVLQAANENPVGSGPYYVESWADDRCVFKKNGNWWGIRELGYDPKPERIVELRVLSNNVAVGMLMKGELDWSNFFLPGVPVLKKAYGIVTWYENAPYMLPANTAGIYINVNKYPLSIPEFRRAMAYAINPEKIVTRAYENMVTAANPAGILPLPGYMKYYPKEVVDKYGFKYDPEMAKKILDELGFKDVNKDGFREDPNGKPFKLTIECPYGWTDWMVSIQSIAEDLVKVGINVEPKYPDYSKYADDLYGGKFDLILNNFTTGVSATIWSYFNGVFYPDAVESEYSYSGNFGKYANPEVETLLDELNRSNDDAKIKEVVAKLSEILLKDLPFIPLWYNGAWFQASEAVWTNWPTEKNPYAVPIGWNGWWQLTGIKTLFGIEAK” reads “soluble”.
For “MGSDKIHHHHHHMRILLSVSRFEDELIEILDRLDETYEIFADNDCFEILKDRIPRIRPFERDDFDLLYLNWRDLPSEKREEKILSTIDENRTLLFLKAIKNYREKLVVTTLEDLKLTFSEIERAGDVSLQTRRYLLLKGLAHFLKVHSEVLESLSDLFFIKDWKAIVLERLQEGIKAPVSLLPVSIPPELVEDIGLASHLIRFLPQKACVLVKNGKIVYASSTGDLPEIEGGVFALKGVFRGEKKFDFILAEDFEGDVEGLRIKDLLHQEEGLVLLGASGYLREPVPTNDFTEVLSMHPVFDSCAVTKEGKLVLHVVELNRSDVINALEKIDLSGTEVAFNFPISDEEKAELKQKGVKKVSWIDSRRIWRRC”, the “soluble on expression in E. coli” value was “not soluble”.
Regarding “GMFTCKVNEHITIRLLEPKDAERLAELIIQNQQRLGKWLFFAENPSSADTYRETIIPDWRRQYADLNGIEAGLLYDGSLCGMISLHNLDQVNRKAEIGYWIAKEFEGKGIITAACRKLITYAFEELELNRVAICAAVGNEKSRAVPERIGFLEEGKARDGLYVNGMHHDLVYYSLLKREWEGEK”, the “soluble on expression in E. coli” value is “soluble”.

These data come from the DeepSol protein solubility set.
